Test results taken from paper PMC8409985.

Target: truncated human ACE2 ectodomain (residues 19–613) with C-terminal AVI-tag and 6xHis-tag, biotinylated (human) (UniProt Q9BYF1)
Test: BLI

Row | Substance | t1/2 [min]
1 | SARS-CoV-2 RBD variant N501Y (from UniProt P0DTC2 319-541) (domain or fragment) | 5.49
2 | SARS-CoV-2 RBD variant N439K (from UniProt P0DTC2 319-541) (domain or fragment) | 1.85
